# Measurements taken from patent US9957297B2, “Template-fixed peptidomimetics as inhibitors of FPR1” (POLYPHOR AG, priority 2011, dated 2018).
# Bridges are numbered along the chain shown (N, C = ends). [ ]: non-standard residue; d: D form.
# T1: Formyl-Peptide Receptor 1 (UniProt P21462 1-350, limits assumed)
# T1 sequence (looked up): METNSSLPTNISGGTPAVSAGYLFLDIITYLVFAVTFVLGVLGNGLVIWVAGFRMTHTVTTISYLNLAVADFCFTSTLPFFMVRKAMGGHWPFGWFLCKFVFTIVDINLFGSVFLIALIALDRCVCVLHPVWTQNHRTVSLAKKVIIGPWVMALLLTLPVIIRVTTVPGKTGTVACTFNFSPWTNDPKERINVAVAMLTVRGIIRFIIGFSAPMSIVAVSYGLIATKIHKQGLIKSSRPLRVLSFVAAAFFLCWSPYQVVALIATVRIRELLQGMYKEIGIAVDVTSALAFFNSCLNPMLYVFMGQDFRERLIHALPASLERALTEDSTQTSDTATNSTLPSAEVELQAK
# B1: cyclo(-Thr-His-Ala-Cys-Trp-Gly-^DPro-Trp-Thr-Ile-Cys-Tyr-Gln-Lys-^DPro-Pro-) (peptide)
# peptide: cyclo(THACWG[dP]WTICYQK[dP]P)
# modifications: disulfide 4-11
# SMILES: CC[C@H](C)[C@@H]1NC(=O)[C@H]([C@@H](C)O)NC(=O)[C@H](Cc2c[nH]c3ccccc23)NC(=O)[C@H]2CCCN2C(=O)CNC(=O)[C@H](Cc2c[nH]c3ccccc23)NC(=O)[C@@H]2CSSC[C@H](NC1=O)C(=O)N[C@@H](Cc1ccc(O)cc1)C(=O)N[C@@H](CCC(N)=O)C(=O)N[C@@H](CCCCN)C(=O)N1CCC[C@@H]1C(=O)N1CCC[C@H]1C(=O)N[C@@H]([C@@H](C)O)C(=O)N[C@@H](Cc1c[nH]cn1)C(=O)N[C@@H](C)C(=O)N2
# B2: cyclo(-Tyr-His-Lys-Cys-His-Gly-^DPro-Trp-Thr-Ile-Cys-Tyr-Glu-Lys-^DPro-Glu-) (peptide)
# peptide: cyclo(YHKCHG[dP]WTICYEK[dP]E)
# modifications: disulfide 4-11
# SMILES: CC[C@H](C)[C@@H]1NC(=O)[C@H]([C@@H](C)O)NC(=O)[C@H](Cc2c[nH]c3ccccc23)NC(=O)[C@H]2CCCN2C(=O)CNC(=O)[C@H](Cc2c[nH]cn2)NC(=O)[C@@H]2CSSC[C@H](NC1=O)C(=O)N[C@@H](Cc1ccc(O)cc1)C(=O)N[C@@H](CCC(=O)O)C(=O)N[C@@H](CCCCN)C(=O)N1CCC[C@@H]1C(=O)N[C@@H](CCC(=O)O)C(=O)N[C@@H](Cc1ccc(O)cc1)C(=O)N[C@@H](Cc1c[nH]cn1)C(=O)N[C@@H](CCCCN)C(=O)N2
# B3: cyclo(-Tyr-His-Ala-Cys-Phe-Gly-^DPro-Trp-Thr-Ile-Cys-Tyr-Gln-Lys-^DPro-Pro-) (peptide)
# peptide: cyclo(YHACFG[dP]WTICYQK[dP]P)
# modifications: disulfide 4-11
# SMILES: CC[C@H](C)[C@@H]1NC(=O)[C@H]([C@@H](C)O)NC(=O)[C@H](Cc2c[nH]c3ccccc23)NC(=O)[C@H]2CCCN2C(=O)CNC(=O)[C@H](Cc2ccccc2)NC(=O)[C@@H]2CSSC[C@H](NC1=O)C(=O)N[C@@H](Cc1ccc(O)cc1)C(=O)N[C@@H](CCC(N)=O)C(=O)N[C@@H](CCCCN)C(=O)N1CCC[C@@H]1C(=O)N1CCC[C@H]1C(=O)N[C@@H](Cc1ccc(O)cc1)C(=O)N[C@@H](Cc1c[nH]cn1)C(=O)N[C@@H](C)C(=O)N2
# B4: cyclo(-His-His-Ala-Cys-Trp-Gly-^DPro-Trp-Thr-Ile-Cys-Tyr-Gln-Lys-^DPro-Pro-) (peptide)
# peptide: cyclo(HHACWG[dP]WTICYQK[dP]P)
# modifications: disulfide 4-11
# SMILES: CC[C@H](C)[C@@H]1NC(=O)[C@H]([C@@H](C)O)NC(=O)[C@H](Cc2c[nH]c3ccccc23)NC(=O)[C@H]2CCCN2C(=O)CNC(=O)[C@H](Cc2c[nH]c3ccccc23)NC(=O)[C@@H]2CSSC[C@H](NC1=O)C(=O)N[C@@H](Cc1ccc(O)cc1)C(=O)N[C@@H](CCC(N)=O)C(=O)N[C@@H](CCCCN)C(=O)N1CCC[C@@H]1C(=O)N1CCC[C@H]1C(=O)N[C@@H](Cc1c[nH]cn1)C(=O)N[C@@H](Cc1c[nH]cn1)C(=O)N[C@@H](C)C(=O)N2
# B5: cyclo(-Tyr-His-Ala-Cys-Tyr-Gly-^DPro-Trp-Thr-Ile-Cys-Tyr-Gln-Lys-^DPro-Pro-) (peptide)
# peptide: cyclo(YHACYG[dP]WTICYQK[dP]P)
# modifications: disulfide 4-11
# SMILES: CC[C@H](C)[C@@H]1NC(=O)[C@H]([C@@H](C)O)NC(=O)[C@H](Cc2c[nH]c3ccccc23)NC(=O)[C@H]2CCCN2C(=O)CNC(=O)[C@H](Cc2ccc(O)cc2)NC(=O)[C@@H]2CSSC[C@H](NC1=O)C(=O)N[C@@H](Cc1ccc(O)cc1)C(=O)N[C@@H](CCC(N)=O)C(=O)N[C@@H](CCCCN)C(=O)N1CCC[C@@H]1C(=O)N1CCC[C@H]1C(=O)N[C@@H](Cc1ccc(O)cc1)C(=O)N[C@@H](Cc1c[nH]cn1)C(=O)N[C@@H](C)C(=O)N2
# B6: cyclo(-Lys-His-Ala-Cys-His-Gly-^DPro-Trp-Thr-Ile-Cys-Tyr-Gln-Lys-^DPro-Pro-) (peptide)
# peptide: cyclo(KHACHG[dP]WTICYQK[dP]P)
# modifications: disulfide 4-11
# SMILES: CC[C@H](C)[C@@H]1NC(=O)[C@H]([C@@H](C)O)NC(=O)[C@H](Cc2c[nH]c3ccccc23)NC(=O)[C@H]2CCCN2C(=O)CNC(=O)[C@H](Cc2c[nH]cn2)NC(=O)[C@@H]2CSSC[C@H](NC1=O)C(=O)N[C@@H](Cc1ccc(O)cc1)C(=O)N[C@@H](CCC(N)=O)C(=O)N[C@@H](CCCCN)C(=O)N1CCC[C@@H]1C(=O)N1CCC[C@H]1C(=O)N[C@@H](CCCCN)C(=O)N[C@@H](Cc1c[nH]cn1)C(=O)N[C@@H](C)C(=O)N2
# B7: cyclo(-Tyr-His-Ala-Cys-His-Gly-^DPro-Trp-Thr-Ile-Cys-Tyr-Glu-Lys-^DPro-Pro-) (peptide)
# peptide: cyclo(YHACHG[dP]WTICYEK[dP]P)
# modifications: disulfide 4-11
# SMILES: CC[C@H](C)[C@@H]1NC(=O)[C@H]([C@@H](C)O)NC(=O)[C@H](Cc2c[nH]c3ccccc23)NC(=O)[C@H]2CCCN2C(=O)CNC(=O)[C@H](Cc2c[nH]cn2)NC(=O)[C@@H]2CSSC[C@H](NC1=O)C(=O)N[C@@H](Cc1ccc(O)cc1)C(=O)N[C@@H](CCC(=O)O)C(=O)N[C@@H](CCCCN)C(=O)N1CCC[C@@H]1C(=O)N1CCC[C@H]1C(=O)N[C@@H](Cc1ccc(O)cc1)C(=O)N[C@@H](Cc1c[nH]cn1)C(=O)N[C@@H](C)C(=O)N2
# B8: cyclo(-Tyr-His-Ala-Cys-Trp-Gly-^DAla-Trp-Thr-Ile-Cys-Tyr-Gln-Lys-^DPro-Pro-) (peptide)
# peptide: cyclo(YHACWG[dA]WTICYQK[dP]P)
# modifications: disulfide 4-11
# SMILES: CC[C@H](C)[C@@H]1NC(=O)[C@H]([C@@H](C)O)NC(=O)[C@H](Cc2c[nH]c3ccccc23)NC(=O)[C@@H](C)NC(=O)CNC(=O)[C@H](Cc2c[nH]c3ccccc23)NC(=O)[C@@H]2CSSC[C@H](NC1=O)C(=O)N[C@@H](Cc1ccc(O)cc1)C(=O)N[C@@H](CCC(N)=O)C(=O)N[C@@H](CCCCN)C(=O)N1CCC[C@@H]1C(=O)N1CCC[C@H]1C(=O)N[C@@H](Cc1ccc(O)cc1)C(=O)N[C@@H](Cc1c[nH]cn1)C(=O)N[C@@H](C)C(=O)N2
# B9: cyclo(-Glu-His-Ala-Cys-Trp-Gly-^DPro-Trp-Thr-Ile-Cys-Tyr-Gln-Lys-^DPro-Pro-) (peptide)
# peptide: cyclo(EHACWG[dP]WTICYQK[dP]P)
# modifications: disulfide 4-11
# SMILES: CC[C@H](C)[C@@H]1NC(=O)[C@H]([C@@H](C)O)NC(=O)[C@H](Cc2c[nH]c3ccccc23)NC(=O)[C@H]2CCCN2C(=O)CNC(=O)[C@H](Cc2c[nH]c3ccccc23)NC(=O)[C@@H]2CSSC[C@H](NC1=O)C(=O)N[C@@H](Cc1ccc(O)cc1)C(=O)N[C@@H](CCC(N)=O)C(=O)N[C@@H](CCCCN)C(=O)N1CCC[C@@H]1C(=O)N1CCC[C@H]1C(=O)N[C@@H](CCC(=O)O)C(=O)N[C@@H](Cc1c[nH]cn1)C(=O)N[C@@H](C)C(=O)N2
# B10: cyclo(-Tyr-His-Ala-Cys-Trp-Gly-^DPro-Trp-Thr-Ile-Cys-Tyr-Thr-Lys-^DPro-Pro-) (peptide)
# peptide: cyclo(YHACWG[dP]WTICYTK[dP]P)
# modifications: disulfide 4-11
# SMILES: CC[C@H](C)[C@@H]1NC(=O)[C@H]([C@@H](C)O)NC(=O)[C@H](Cc2c[nH]c3ccccc23)NC(=O)[C@H]2CCCN2C(=O)CNC(=O)[C@H](Cc2c[nH]c3ccccc23)NC(=O)[C@@H]2CSSC[C@H](NC1=O)C(=O)N[C@@H](Cc1ccc(O)cc1)C(=O)N[C@@H]([C@@H](C)O)C(=O)N[C@@H](CCCCN)C(=O)N1CCC[C@@H]1C(=O)N1CCC[C@H]1C(=O)N[C@@H](Cc1ccc(O)cc1)C(=O)N[C@@H](Cc1c[nH]cn1)C(=O)N[C@@H](C)C(=O)N2
# B11: cyclo(-Tyr-His-Ala-Cys-Trp-Gly-^DPro-Trp-Thr-Ile-Cys-Tyr-Ala-Lys-^DPro-Pro-) (peptide)
# peptide: cyclo(YHACWG[dP]WTICYAK[dP]P)
# modifications: disulfide 4-11
# SMILES: CC[C@H](C)[C@@H]1NC(=O)[C@H]([C@@H](C)O)NC(=O)[C@H](Cc2c[nH]c3ccccc23)NC(=O)[C@H]2CCCN2C(=O)CNC(=O)[C@H](Cc2c[nH]c3ccccc23)NC(=O)[C@@H]2CSSC[C@H](NC1=O)C(=O)N[C@@H](Cc1ccc(O)cc1)C(=O)N[C@@H](C)C(=O)N[C@@H](CCCCN)C(=O)N1CCC[C@@H]1C(=O)N1CCC[C@H]1C(=O)N[C@@H](Cc1ccc(O)cc1)C(=O)N[C@@H](Cc1c[nH]cn1)C(=O)N[C@@H](C)C(=O)N2
# B12: cyclo(-His-Tyr-Ala-Cys-Trp-Gly-^DPro-Trp-Thr-Ile-Cys-Tyr-Gln-Lys-^DPro-Pro-) (peptide)
# peptide: cyclo(HYACWG[dP]WTICYQK[dP]P)
# modifications: disulfide 4-11
# SMILES: CC[C@H](C)[C@@H]1NC(=O)[C@H]([C@@H](C)O)NC(=O)[C@H](Cc2c[nH]c3ccccc23)NC(=O)[C@H]2CCCN2C(=O)CNC(=O)[C@H](Cc2c[nH]c3ccccc23)NC(=O)[C@@H]2CSSC[C@H](NC1=O)C(=O)N[C@@H](Cc1ccc(O)cc1)C(=O)N[C@@H](CCC(N)=O)C(=O)N[C@@H](CCCCN)C(=O)N1CCC[C@@H]1C(=O)N1CCC[C@H]1C(=O)N[C@@H](Cc1c[nH]cn1)C(=O)N[C@@H](Cc1ccc(O)cc1)C(=O)N[C@@H](C)C(=O)N2
# B13: cyclo(-Tyr-His-Ala-Cys-His-Gly-^DPro-Trp-Thr-Ile-Cys-Tyr-Thr-Lys-^DPro-Pro-) (peptide)
# peptide: cyclo(YHACHG[dP]WTICYTK[dP]P)
# modifications: disulfide 4-11
# SMILES: CC[C@H](C)[C@@H]1NC(=O)[C@H]([C@@H](C)O)NC(=O)[C@H](Cc2c[nH]c3ccccc23)NC(=O)[C@H]2CCCN2C(=O)CNC(=O)[C@H](Cc2c[nH]cn2)NC(=O)[C@@H]2CSSC[C@H](NC1=O)C(=O)N[C@@H](Cc1ccc(O)cc1)C(=O)N[C@@H]([C@@H](C)O)C(=O)N[C@@H](CCCCN)C(=O)N1CCC[C@@H]1C(=O)N1CCC[C@H]1C(=O)N[C@@H](Cc1ccc(O)cc1)C(=O)N[C@@H](Cc1c[nH]cn1)C(=O)N[C@@H](C)C(=O)N2
# B14: cyclo(-Ala-His-Ala-Cys-Trp-Gly-^DPro-Trp-Thr-Ile-Cys-Tyr-Gln-Lys-^DPro-Pro-) (peptide)
# peptide: cyclo(AHACWG[dP]WTICYQK[dP]P)
# modifications: disulfide 4-11
# SMILES: CC[C@H](C)[C@@H]1NC(=O)[C@H]([C@@H](C)O)NC(=O)[C@H](Cc2c[nH]c3ccccc23)NC(=O)[C@H]2CCCN2C(=O)CNC(=O)[C@H](Cc2c[nH]c3ccccc23)NC(=O)[C@@H]2CSSC[C@H](NC1=O)C(=O)N[C@@H](Cc1ccc(O)cc1)C(=O)N[C@@H](CCC(N)=O)C(=O)N[C@@H](CCCCN)C(=O)N1CCC[C@@H]1C(=O)N1CCC[C@H]1C(=O)N[C@@H](C)C(=O)N[C@@H](Cc1c[nH]cn1)C(=O)N[C@@H](C)C(=O)N2
# Molecular target: T1, Formyl-Peptide Receptor 1
# Assay: cell-based or functional assay
binder,measurement,value
B1,β-Arrestin IC50,294 nM
B2,β-Arrestin IC50,169 nM
B3,β-Arrestin IC50,166 nM
B4,β-Arrestin IC50,342 nM
B5,β-Arrestin IC50,184 nM
B6,β-Arrestin IC50,590 nM
B7,β-Arrestin IC50,189 nM
B8,β-Arrestin IC50,213 nM
B9,β-Arrestin IC50,131 nM
B10,β-Arrestin IC50,202 nM
B11,β-Arrestin IC50,278 nM
B12,β-Arrestin IC50,735 nM
B13,β-Arrestin IC50,598 nM
B14,β-Arrestin IC50,404 nM
